{"source": "paper PMC10767040", "about": "“Helical reconstruction of VP39 reveals principles for baculovirus nucleocapsid assembly” (Nature Communications, 2024)", "proteins": {"B1": {"name": "Autographa californica multiple nucleopolyhedrovirus (AcMNPV) major capsid protein VP39 (natural protein)", "chain": "MALVPVGMAPRQMRVNRCIFASIVSFDACITYKSPCSPDAYHDDGWFICNNHLIKRFKMSKMVLPIFDEDDNQFKMTIARHLVGNKERGIKRILIPSATNYQDVFNLNSMMQAEQLIFHLIYNNENAVNTICDNLKYTEGFTSNTQRVIHSVYATTKSILDTTNPNTFCSRVSRDELRFFDVTNARALRGGAGDQLFNNYSGFLQNLIRRAVAPEYLQIDTEELRFRNCATCIIDETGLVASVPDGPELYNPIRSSDIMRSQPNRLQIRNVLKFEGDTRELDRTLSGYEEYPTYVPLFLGYQIINSENNFLRNDFIPRANPNATLGGGAVAGPAPGVAGEAGGGIAV", "notes": "VP39, the 39 kDa major capsid protein of Autographa californica multiple nucleopolyhedrovirus, as assembled in the nucleocapsid; the first 11 residues of the N terminus and the last 27 residues of the C terminus are unresolved in the model; The virus's own VP39 from the bacmid backbone; the decahistidine or FLAG tags were on unrelated human constructs, not on VP39; In the sample VP39 stood as …"}}, "target": "the molecule itself", "test": "cryo-EM structure; helical reconstruction (D14, rise 43.86 Å, twist -7.16°) of AcMNPV nucleocapsids purified from Sf9 cells, on graphene-coated grids; local reconstruction of four adjacent VP39 dimers", "data": [{"protein": "B1", "values": [{"measurement": "stoichiometry N", "value": 2}]}]}
